Drawing on patent publication US20050019306, this text covers activity (fold relative to p48-S2C) for one substance.

For the series, the target named is p48-VP16 TAD (Homo sapiens / Herpes simplex virus) (UniProt Q00978). The series can be described thus: cell_activity. To be noted: 293T ISRE-Luc reporter.
UniProt Q00978, sequence (Q00978 1-393, tags or fused parts left off): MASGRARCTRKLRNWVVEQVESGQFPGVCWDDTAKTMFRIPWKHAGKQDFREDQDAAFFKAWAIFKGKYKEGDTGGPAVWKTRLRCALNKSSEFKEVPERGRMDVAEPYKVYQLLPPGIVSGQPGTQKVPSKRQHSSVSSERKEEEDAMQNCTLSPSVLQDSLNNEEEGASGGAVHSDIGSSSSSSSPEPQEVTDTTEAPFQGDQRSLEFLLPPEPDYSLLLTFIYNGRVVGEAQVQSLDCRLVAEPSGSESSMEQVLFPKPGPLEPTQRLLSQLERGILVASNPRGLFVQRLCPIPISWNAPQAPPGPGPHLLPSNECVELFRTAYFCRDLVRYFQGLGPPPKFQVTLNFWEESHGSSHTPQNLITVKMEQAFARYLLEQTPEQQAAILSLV

In turn, 5x ISG54 ISRE luciferase reporter returned an activity (fold relative to p48-S2C) of 3.
